From doi:10.1101/2020.08.16.252742 (bioRxiv, 2020)

B1: anti-HIV-1 gp120 monoclonal antibody PGT145 (antibody, V domains shown)
VH: QVQLVQSGAEVKKPGSSVKVSCKASGNSFSNHDVHWVRQATGQGLEWMGWMSHEGDKTGLAQKFQGRVTITRDSGASTVYMELRGLTADDTAIYYCLTGSKHRLRDYFLYNEYGPNYEEWGDYLATLDVWGHGTAVTVSS
VL: EVVITQSPLFLPVTPGEAASLSCKCSHSLQHSTGANYLAWYLQRPGQTPRLLIHLATHRASGVPDRFSGSGSGTDFTLKISRVESDDVGTYYCMQGLHSPWTFGQGTKVEIK
B2: anti-HIV-1 gp41 monoclonal antibody 10E8 (antibody, V domains shown)
VH: EVQLVESGGGLVKPGGSLRLSCSASGFDFDNAWMTWVRQPPGKGLEWVGRITGPGEGWSVDYAAPVEGRFTISRLNSINFLYLEMNNLRMEDSGLYFCARTGKYYDFWSGYPPGEEYFQDWGRGTLVTVSS
VL: SYELTQETGVSVALGRTVTITCRGDSLRSHYASWYQKKPGQAPILLFYGKNNRPSGVPDRFSGSASGNRASLTISGAQAEDDAEYYCSSRDKSGSRLSVFGGGTKLTVL

Tests used:
[1] = biological target: HIV-1 NL4-3 Env glycoprotein (unlabelled) on HIV-1 Gag-GFP pseudovirions (HIV-1 group M subtype B, NL4-3 (pNL4-3), strain); test: single-molecule photobleaching of immunostained virions
[2] = biological target: HIV-1 JR-FL Env glycoprotein (unlabelled) on HIV-1 Gag-GFP pseudovirions (HIV-1 JR-FL, UniProt Q75760, strain); test: as above

Binder | binding result [1] | binding result [2]
B1 | binds | binds
B2 | binds | binds
